Measurements published in US20260083853A1, “CD70 ANTIBODY DRUG CONJUGATES AND METHODS OF USING THE SAME” (Genmab A/S, priority 2022, published 2026).

T1: Human CD70 on CD70-expressing human tumor cell lines (Raji, 786-O, Caki-1) (human, UniProt P32970 1-193)
T1 construct: whole, on cells; Endogenous CD70 on the cells; also called human CD70-expressing cell lines; CD70-positive cell lines 786-O, Raji and Caki-1
T1 sequence (looked up): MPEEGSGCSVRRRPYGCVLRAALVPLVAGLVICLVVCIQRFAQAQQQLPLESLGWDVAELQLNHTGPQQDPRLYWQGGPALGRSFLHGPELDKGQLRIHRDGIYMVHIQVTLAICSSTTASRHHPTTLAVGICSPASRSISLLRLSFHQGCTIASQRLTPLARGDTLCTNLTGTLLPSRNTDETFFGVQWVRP

T2: Recombinant cynomolgus monkey CD70 extra-cellular domain (ECD) linked to His tag (cynomolgus monkey, UniProt A0A2K5WTU9 39-190)
T2 construct: extracellular domain; Purchased or made in house; also called Cyno CD70; not shown: His tag
T2 sequence: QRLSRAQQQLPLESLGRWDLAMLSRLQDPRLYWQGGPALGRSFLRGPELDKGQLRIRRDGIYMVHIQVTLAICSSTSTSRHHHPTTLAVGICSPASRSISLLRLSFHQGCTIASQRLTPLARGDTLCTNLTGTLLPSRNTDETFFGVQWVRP

T3: Recombinant human CD70 extra-cellular domain (ECD) linked to His tag (human, UniProt P32970 39-193)
T3 construct: extracellular domain; Purchased (KACTUS or ACRO biosystems) or made in house; also called human CD70 protein; not shown: His tag
T3 sequence (looked up): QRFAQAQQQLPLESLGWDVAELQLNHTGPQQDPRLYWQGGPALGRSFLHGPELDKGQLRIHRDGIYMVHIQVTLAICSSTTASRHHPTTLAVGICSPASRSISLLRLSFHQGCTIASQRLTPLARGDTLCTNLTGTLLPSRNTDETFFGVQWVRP

T4: Recombinant mouse CD70 extra-cellular domain (ECD) linked to His tag (mouse, UniProt O55237 45-195)
T4 construct: extracellular domain; Purchased or made in house; not shown: His tag
T4 sequence (looked up): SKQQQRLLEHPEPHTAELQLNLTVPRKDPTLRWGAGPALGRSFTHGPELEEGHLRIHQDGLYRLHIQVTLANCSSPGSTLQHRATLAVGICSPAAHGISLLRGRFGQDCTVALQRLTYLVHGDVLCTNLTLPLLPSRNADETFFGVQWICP

B1: 2E7 antibody (antibody, human IgG1, kappa, V domains shown)
VH: QVQLQESGPGLVKPSETLSLTCTVSGGSVSSDYYYWSWIRQPPGKGLEWLGYIYYSGSTNYNPSLKSRVTISVDTSKNQFSLKLRSVTTADTAVYYCARGDGDFLGVCFDYWGQGTLVTVSS
VL: EIVLTQSPATLSLSPGERATLSCRASQSVSSYLAWYQQKPGQAPRLLIFDASNRATGIPARFSGSGSGTDFTLTISSLEPEDFAVYYCQQRSNWPLTFGGGTKVEIKR
notes: Made in ExpiCHO-S cells and purified on Protein A; also called Ab 2E7; parental mAb (2E7)
B2: 2D2: anti-CD70 clone with "at least two more amino acid substitutions in HCDR3/LCDR3" "compared with the parent antibody 69A7" (antibody, V domains shown)
VH: QVQLQESGPGLVKPSETLSLTCTVSGGSVSSDYYYWSWIRQPPGKGLEWLGYIYYSGSTNYNPSLKSRVTISVDTSKNQFSLKLRSVTTADTAVYYCARGDGDYGGNCFDYWGQGTLVTVSS
VL: EIVLTQSPATLSLSPGERATLSCRASQSVSSYLAWYQQKPGQAPRLLIFDASNRATGIPARFSGSGSGTDFTLTISSLEPEDFAVYYCQQRLKFPLTFGGGTKVEIK
B3: 1H8: anti-CD70 clone with "at least two more amino acid substitutions in HCDR3/LCDR3" "compared with the parent antibody 69A7" (antibody, V domains shown)
VH: QVQLQESGPGLVKPSETLSLTCTVSGGSVSSDYYYWSWIRQPPGKGLEWLGYIYYSGSTNYNPSLKSRVTISVDTSKNQFSLKLRSVTTADTAVYYCARGDGDFMGVCFDYWGQGTLVTVSS
VL: EIVLTQSPATLSLSPGERATLSCRASQSVSSYLAWYQQKPGQAPRLLIFDASNRATGIPARFSGSGSGTDFTLTISSLEPEDFAVYYCQQRSNWPLTFGGGTKVEIK
B4: 2E7-LD038 conjugate (antibody, human IgG1, kappa, DAR 8, V domains shown)
VH: QVQLQESGPGLVKPSETLSLTCTVSGGSVSSDYYYWSWIRQPPGKGLEWLGYIYYSGSTNYNPSLKSRVTISVDTSKNQFSLKLRSVTTADTAVYYCARGDGDFLGVCFDYWGQGTLVTVSS
VL: EIVLTQSPATLSLSPGERATLSCRASQSVSSYLAWYQQKPGQAPRLLIFDASNRATGIPARFSGSGSGTDFTLTISSLEPEDFAVYYCQQRSNWPLTFGGGTKVEIKR
modifications: Drug-Linker LD038 (PB038; PEG unit, cleavable linker, exatecan) attached to cysteines after TCEP reduction; DAR8 for the whole antibody; residues not stated
notes: The constant regions are tied to 2E7 by claim 120; also called PA038; ADC PA038
B5: 2A4: anti-CD70 clone with "at least two more amino acid substitutions in HCDR3/LCDR3" "compared with the parent antibody 69A7" (antibody, V domains shown)
VH: QVQLQESGPGLVKPSETLSLTCTVSGGSVSSDYYYWSWIRQPPGKGLEWLGYIYYSGSTNYNPSLKSRVTISVDTSKNQFSLKLRSVTTADTAVYYCARGDGDYGGNVFPYWGQGTLVTVSS
VL: EIVLTQSPATLSLSPGERATLSCRASQSVSSYLAWYQQKPGQAPRLLIFDASNRATGIPARFSGSGSGTDFTLTISSLEPEDFAVYYCQQRSNWPLTFGGGTKVEIK

Experiments:
[1] = biological target: T1, Human CD70 on CD70-expressing human …; assay: flow cytometry blocking assay on 786-O cells; blocked ligand: biotinylated human CD27 at 30 ug/ml, detection with PE-conjugated streptavidin
Description: (§1) CD70-positive cell lines 786-O, Raji and Caki-1 were mixed with varying concentrations from 333.5 nM down to 6 nM of 2E7-LD038 conjugate, or 2E7 antibody, or negative binding control (B12), and incubated at 4° C. for 30 minutes. Cells were washed twice with PBS and then incubated with 30 µg/ml biotinylated human CD27 (the receptor for CD70) at 4° C. Staining was done using PE-conjugated streptavidin for 30 minutes and fluorescence was measured using flow cytometer.

[2] = biological target: T1, Human CD70 on CD70-expressing human …; assay: flow cytometry on 786-O cells, detection with PE-conjugated anti-human Fc, MFI(PE)
Description: (§2) The binding activity of 2E7 antibody or 2E7-LD038 ADC was evaluated by Flow cytometric analysis (Beckman, Cytoflex) with target-expressing cell lines, Raji, 786-O, Caki-1, and a cell line with negligible CD70 expression, MCF-7. 3×10⁵ cells were seeded per well at 96-well v-bottomed plate and incubated with 100 μl of 2E7 or 2E7-LD038 in serial dilutions. After 30 minutes of incubation at 4° C., cells were washed twice with PBS, stained with 100 μl of 1:200 diluted PE-conjugated anti human Fc in FACS buffer (1×PBS containing 1% BSA) and then incubated at 4° C. for 30 minutes. After that the cells were washed 2 times with PBS and analyzed by Flow cytometric analysis.

[3] = biological target: T1, Human CD70 on CD70-expressing human …; assay: flow cytometry blocking assay on Raji cells; blocked ligand: biotinylated human CD27 at 30 ug/ml, detection with PE-conjugated streptavidin
Description: as §1

[4] = biological target: T1, Human CD70 on CD70-expressing human …; assay: flow cytometry blocking assay on Caki-1 cells; blocked ligand: biotinylated human CD27 at 30 ug/ml, detection with PE-conjugated streptavidin
Description: as §1

[5] = biological target: T1, Human CD70 on CD70-expressing human …; assay: flow cytometry on Raji cells, detection with PE-conjugated anti-human Fc, MFI(PE)
Description: as §2

[6] = biological target: T2, Recombinant cynomolgus monkey CD70 …; assay: BLI (Octet RED), antibody on anti-human IgG Fc tips, CD70 ECD-His in solution 200 to 3.13 nM, 1:1 global fit
Description: (§3) Recombinant proteins consisting of the CD70 extra-cellular domain (ECD) linked to His tag were either purchased (from KACTUS or ACRO biosystems) or synthesized in house. 2E7 antibody or 2E7-LD038 conjugate (20 nM) was immobilized on anti-human IgG Fc biosensor tips (Fortebio). Binding assays using varying concentration from 200 nM down to 3.13 nM of recombinant protein in solution were performed using Octet RED (Fortebio). Association time was set at 180 seconds and dissociation time was set at 300 seconds. Binding affinity was calculated using ForteBio Data Acquisition 6.3 software (ForteBio). Affinity was derived by fitting the kinetic data to a 1:1 Langmuir binding model utilizing global fitting algorithms.

[7] = biological target: T3, Recombinant human CD70 extra-cellular …; assay: as above
Description: as §3

[8] = biological target: T1, Human CD70 on CD70-expressing human …; assay: flow cytometry on Caki-1 cells, detection with PE-conjugated anti-human Fc, MFI(PE)
Description: as §2

[9] = biological target: T4, Recombinant mouse CD70 extra-cellular …; assay: BLI (Octet RED), antibody on anti-human IgG Fc tips, CD70 ECD-His in solution 200 to 3.13 nM
Description: as §3

[10] = Hydrophobic interaction chromatography (HIC) of anti-CD70 antibodies; type: physicochemical; conditions: for Retention time (hydrophobicity): TSK gel Butyl-NPR
Description: Antibodies were purified from cleared cell culture supernatants using Protein A chromatography (Protein A resin slurry, 4.5 mL, Bogen, Cat #18-0010-02). Briefly, supernatants were prepared for affinity chromatography and loaded onto the columns and allowed to flow completely through the resin. The columns were washed with binding buffer containing 0.15M NaCl and 0.2M PB, PH7.0. Antibody was eluted with elution buffer containing 0.15M NaCl, 0.1M Glycine and 0.2M PB, PH 3.0. Fractions were collected and neutralized by the addition of 1/10 volume of 1M Tris, PH9.0. The fractions were dialyzed for 2 hours against 1×PBS. Purified antibody was quantified by absorbance at A280. Samples from each step of the protein A chromatography were applied onto 12% SDS-PAGE gels for reduced and non-reduced electrophoresis. The hydrophobicity was assessed with hydrophobic interaction chromatography (HIC) on a TSK gel Butyl-NPR, 4.6×100 mm with Butyl-NPR (Tosoh corporation) using a Waters HPLC 2695 system.

[11] = biological target: T2, Recombinant cynomolgus monkey CD70 …; assay: BLI (Octet RED), conjugate on anti-human IgG Fc tips, CD70 ECD-His in solution 200 to 3.13 nM, 1:1 global fit
Description: as §3

[12] = biological target: T3, Recombinant human CD70 extra-cellular …; assay: as above
Description: as §3

[13] = biological target: T4, Recombinant mouse CD70 extra-cellular …; assay: BLI (Octet RED), conjugate on anti-human IgG Fc tips, CD70 ECD-His in solution 200 to 3.13 nM
Description: as §3

Molecule	IC50 [1]	EC50 [2]	IC50 [3]	IC50 [4]	EC50 [5]	EC50 [8]	Retention time (hydrophobicity) [10]	also measured
B1	6.24 nM	2.81 nM	8.78 nM	7.04 nM	19.9 nM	1.59 nM		Kd [6]: 0.39 nM; koff [6]: 0.000241 s⁻¹; kon [6]: 618000 M⁻¹ s⁻¹; Kd [7]: 0.807 nM; koff [7]: 0.000254 s⁻¹; kon [7]: 314000 M⁻¹ s⁻¹; binding result [9]: no binding (tested: 200 nM)
B2							8.81 min	
B3							10.24 min	hydrophobicity compared with parent antibody 69A7 [10]: slightly more hydrophobic than the parent antibody
B4	7.35 nM	2.16 nM	11.6 nM	8.03 nM	26.4 nM	1.45 nM		Kd [11]: 0.144 nM; koff [11]: 9.4e-05 s⁻¹; kon [11]: 652000 M⁻¹ s⁻¹; Kd [12]: 0.12 nM; koff [12]: 5.45e-05 s⁻¹; kon [12]: 456000 M⁻¹ s⁻¹; binding result [13]: no binding (tested: 200 nM)
B5							9.06 min	
